Reference: publication PMC8100066

Assays:
[1] = target: mouse CSL (amino acid residues 53-474), conserved and structurally ordered core domain (mouse) (UniProt P31266); assay: ITC; CSL in the cell at 10 μM, RAM peptides in the syringe at 100 μM; 20 °C; 50 mM sodium phosphate, 150 mM sodium chloride; triplicate, 20 injections of 14 μl
[2] = target: mouse CSL (RBPJ), core domain 53-474 53-474 (UniProt P31266); assay: isothermal titration calorimetry; settings: reference: nonphosphorylated N3RAM peptide; sites S1672

Chain of mouse CSL (amino acid residues 53-474), conserved and structurally ordered core domain (mouse) (P31266 53-474): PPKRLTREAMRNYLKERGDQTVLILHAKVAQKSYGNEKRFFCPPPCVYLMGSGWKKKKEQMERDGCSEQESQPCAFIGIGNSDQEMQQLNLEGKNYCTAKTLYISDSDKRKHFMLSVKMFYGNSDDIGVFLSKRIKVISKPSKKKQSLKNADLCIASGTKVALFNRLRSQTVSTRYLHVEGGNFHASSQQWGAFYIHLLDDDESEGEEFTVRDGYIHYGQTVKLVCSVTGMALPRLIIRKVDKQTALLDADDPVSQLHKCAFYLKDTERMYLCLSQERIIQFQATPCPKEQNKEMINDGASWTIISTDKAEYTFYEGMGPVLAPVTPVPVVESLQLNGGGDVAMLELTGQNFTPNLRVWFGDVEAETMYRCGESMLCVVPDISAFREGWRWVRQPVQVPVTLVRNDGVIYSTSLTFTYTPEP

Kd [1] | KD [2] | Substance
187 nM | – | human NOTCH3 RAM peptide (residues 1665-1682), nonphosphorylated
– | lost; reference 0.187 | human NOTCH3 (N3RAM peptide) RAM domain, 1665-1682 (from UniProt Q9UM47) N3RAMpS1672 peptide
